Measurements as given in patent publication US20190062438A1 (CSL, published 2019).
Changes are numbered by the printed parent chain.

T1: human CD131 (human, UniProt P32927 17-897)
T1 sequence: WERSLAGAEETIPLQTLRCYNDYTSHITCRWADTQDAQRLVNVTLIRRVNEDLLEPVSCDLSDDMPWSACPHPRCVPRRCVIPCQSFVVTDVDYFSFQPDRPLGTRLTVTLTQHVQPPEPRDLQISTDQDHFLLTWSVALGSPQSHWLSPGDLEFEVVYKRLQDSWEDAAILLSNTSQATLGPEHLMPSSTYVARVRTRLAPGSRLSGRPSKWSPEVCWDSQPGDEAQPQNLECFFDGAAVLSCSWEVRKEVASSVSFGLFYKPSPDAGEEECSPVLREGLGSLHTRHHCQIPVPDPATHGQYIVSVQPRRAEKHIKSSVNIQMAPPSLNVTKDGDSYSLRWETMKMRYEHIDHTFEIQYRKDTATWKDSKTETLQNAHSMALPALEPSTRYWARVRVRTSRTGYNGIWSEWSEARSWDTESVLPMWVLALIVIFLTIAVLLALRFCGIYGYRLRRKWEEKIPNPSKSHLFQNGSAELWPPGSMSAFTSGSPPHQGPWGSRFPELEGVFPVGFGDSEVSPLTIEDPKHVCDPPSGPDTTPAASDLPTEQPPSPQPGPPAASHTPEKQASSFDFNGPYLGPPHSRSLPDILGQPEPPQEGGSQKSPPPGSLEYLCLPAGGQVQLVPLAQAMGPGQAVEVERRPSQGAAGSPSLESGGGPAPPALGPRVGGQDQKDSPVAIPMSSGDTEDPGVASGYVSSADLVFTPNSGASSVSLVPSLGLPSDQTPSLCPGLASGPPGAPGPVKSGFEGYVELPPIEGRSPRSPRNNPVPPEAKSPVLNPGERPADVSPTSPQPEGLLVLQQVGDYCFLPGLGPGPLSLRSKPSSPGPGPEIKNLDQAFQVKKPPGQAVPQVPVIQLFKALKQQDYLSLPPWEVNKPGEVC

B1: 9A2-VR39.22 (antibody, V domains shown)
VH: EVQLLESGGGLVQPGGSLRLSCAASGFTFQWYHVIWVRQAPGKGLEWVSSINGRGRVTYYADSVKGRFTISRDNSKNTLYLQMNSLRAEDTAVYYCARFYDSFFDIWGQGTMVTVSS
VL: DIQMTQSPSSVSASVGDRVTITCRASQGISSWLAWYQQKPGKAPKLLIYAASSLQSGVPSRFSGSGSGTDFTLTISSLQPEDFATYYCQQANSFPITFGQGTRLEIKR
B2: 9A2-VR24.24 (antibody, V domains shown)
VH: B1 VH with Q30P, H33R, I35H, N52R, G53T, R54D, R56T, V57W
VL: B1 VL
B3: 9A2-VR39.162 (antibody, V domains shown)
VH: B1 VH with Q30S, W31H, V34M, I35L, T58P, Y59Q, Y60M, D62Q, S63E
VL: B1 VL
B4: 9A2-VR39.110 (antibody, V domains shown)
VH: B1 VH with Q30V, V34H
VL: B1 VL
B5: 9A2-VR24.91 (antibody, V domains shown)
VH: B1 VH with Q30P, H33R, I35H, N52H, G53T, R54H, G55R, R56Q
VL: B1 VL
B6: 9A2-VR24.19 (antibody, V domains shown)
VH: B1 VH with Q30P, H33R, I35H, N52H, G53T, R54Q, G55S, R56K, V57W
VL: B1 VL
B7: 9A2-VR24.07 (antibody, V domains shown)
VH: B1 VH with Q30P, H33R, I35H, N52H, G53T, R54H, G55R, R56N, V57S
VL: B1 VL
B8: 9A2-VR24.10 (antibody, V domains shown)
VH: B1 VH with Q30P, H33R, I35H, N52H, G53T, R54G, G55S, R56Q, V57W
VL: B1 VL
B9: 9A2-VR24.82 (antibody, V domains shown)
VH: B1 VH with Q30P, H33R, I35H, N52K, G53H, R54G, V57Y
VL: B1 VL
B10: 9A2-VR24.81 (antibody, V domains shown)
VH: B1 VH with Q30P, H33R, I35H, N52H, G53T, R54H, G55R, R56N, V57Y
VL: B1 VL
B11: 9A2-VR39.28 (antibody, V domains shown)
VH: B1 VH with G26R, F27G, T28A, F29P, Q30M, V34M, I35L
VL: B1 VL
B12: 9A2-VR39.140 (antibody, V domains shown)
VH: B1 VH with G26A, F27Y, T28S, F29E, Q30M, V34M, I35L
VL: B1 VL
B13: 9A2-VR39.122 (antibody, V domains shown)
VH: B1 VH with G26A, F27G, T28F, Q30E, W31Y, V34M, I35L
VL: B1 VL
B14: 9A2-VR39.111 (antibody, V domains shown)
VH: B1 VH with Q30P, Y32F, V34F, I35V
VL: B1 VL
B15: 9A2-VR24.12 (antibody, V domains shown)
VH: B1 VH with Q30P, H33R, I35H, N52H, G53T, R54H, G55Y, R56Q, V57Y
VL: B1 VL
B16: 9A2-VR39.177 (antibody, V domains shown)
VH: B1 VH with Q30S, W31H, V34M, I35L, D62L, S63E, V64Y, G66K
VL: B1 VL
B17: 9A2-VR24.93 (antibody, V domains shown)
VH: B1 VH with Q30P, H33R, I35H, N52R, G53N, R54E, G55N, R56G, V57W
VL: B1 VL
B18: 9A2-VR39.112 (antibody, V domains shown)
VH: B1 VH with Q30P, W31Y, V34Q, I35V
VL: B1 VL
B19: 9A2-VR39.174 (antibody, V domains shown)
VH: B1 VH with Q30S, W31H, V34M, I35L, D62R, S63D, V64H, G66K
VL: B1 VL
B20: 9A2-VR39.46 (antibody, V domains shown)
VH: B1 VH with G26D, F27V, T28D, Q30G, V34M, I35L
VL: B1 VL
B21: 9A2-VR24.76 (antibody, V domains shown)
VH: B1 VH with Q30P, H33R, I35H, N52Q, G53T, R54H, R56V, V57W
VL: B1 VL
B22: 9A2-VR39.102 (antibody, V domains shown)
VH: B1 VH with Y32F, V34Y
VL: B1 VL
B23: 9A2-VR39.109 (antibody, V domains shown)
VH: B1 VH with Q30M, V34H
VL: B1 VL
B24: 9A2-VR39.24 (antibody, V domains shown)
VH: B1 VH with Q30H, W31H, Y32F
VL: B1 VL
B25: 9A2-VR24.78 (antibody, V domains shown)
VH: B1 VH with Q30P, H33R, I35H, N52H, G53T, R54H, G55R, R56N, V57Y
VL: B1 VL
B26: 9A2-VR24.84 (antibody, V domains shown)
VH: B1 VH with Q30P, H33R, I35H, N52H, G53T, R54H, G55R, R56P, V57W
VL: B1 VL
B27: 9A2-VR39.77 (antibody, V domains shown)
VH: B1 VH with Q30S, W31H, V34M, I35L, A61Q, D62W, S63P, V64M, K65N, G66K
VL: B1 VL
B28: 9A2-VR39.116 (antibody, V domains shown)
VH: B1 VH with Q30P, Y32F, H33V, V34M, I35V
VL: B1 VL
B29: 9A2-VR39.27 (antibody, V domains shown)
VH: B1 VH with G26R, F27T, T28S, Q30M, V34M, I35L
VL: B1 VL
B30: 9A2-VR39.139 (antibody, V domains shown)
VH: B1 VH with G26P, F27R, T28W, F29E, Q30W, W31N, V34M, I35L
VL: B1 VL
B31: 9A2-VR24.04 (antibody, V domains shown)
VH: B1 VH with Q30P, H33R, I35H, N52H, G53T, R54H, G55R, R56H, V57I
VL: B1 VL
B32: 9A2-VR24.87 (antibody, V domains shown)
VH: B1 VH with Q30P, H33R, I35H, N52H, G53T, R54H, G55S, R56D, V57W
VL: B1 VL
B33: 9A2-VR39.105 (antibody, V domains shown)
VH: B1 VH with Q30P, W31Y, V34M
VL: B1 VL
B34: 9A2-VR39.98 (antibody, V domains shown)
VH: B1 VH with Q30E, W31H, V34T
VL: B1 VL
B35: 9A2-VR39.148 (antibody, V domains shown)
VH: B1 VH with Q30S, W31H, V34M, I35L, Y59H, Y60V, D62Q, S63E
VL: B1 VL
B36: 9A2-VR39.97 (antibody, V domains shown)
VH: B1 VH with Q30P, Y32F, V34F, I35V
VL: B1 VL
B37: 9A2-VR39.23 (antibody, V domains shown)
VH: B1 VH with Q30H, W31H, V34T, I35V
VL: B1 VL
B38: 9A2-VR39.93 (antibody, V domains shown)
VH: B1 VH with Q30S, W31H, V34M, I35L, A61N, D62P, S63A, V64W, G66K
VL: B1 VL
B39: 9A2-VR39.103 (antibody, V domains shown)
VH: B1 VH with W31H, Y32F, V34W, I35V
VL: B1 VL

Target: T1, human CD131
Assay: cell-based or functional assay

| IC50 GM-CSF, TF-1 proliferation [nM] | Binder |
| --- | --- |
| 0.5 | B1 |
| 1.09 | B2 |
| 3.6 | B3 |
| 0.28 | B4 |
| 0.5 | B5 |
| 0.98 | B6 |
| 1.17 | B7 |
| 9.52 | B8 |
| 3.99 | B9 |
| 0.48 | B10 |
| 57.2 | B11 |
| 42.5 | B12 |
| 15 | B13 |
| 0.99 | B14 |
| 0.93 | B15 |
| 0.52 | B16 |
| 0.92 | B17 |
| 1 | B18 |
| 0.64 | B19 |
| 3.34 | B20 |

| IC50 GM-CSF, TF-1 proliferation [nM] | Binder |
| --- | --- |
| 12.4 | B21 |
| 2.29 | B22 |
| 0.24 | B23 |
| 0.42 | B24 |
| 0.65 | B25 |
| 0.21 | B26 |
| 2.03 | B27 |
| 7.93 | B28 |
| 17.9 | B29 |
| 21.5 | B30 |
| 0.7 | B31 |
| 2.37 | B32 |
| 0.53 | B33 |
| 1.44 | B34 |
| 1.12 | B35 |
| 0.92 | B36 |
| 0.9 | B37 |
| 0.28 | B38 |
| 5.14 | B39 |
